Experimental data: patent US6875594B2, “Methods of ligating expressed proteins” (The Rockefeller University, priority 1997, dated 2005)

B1: wild type Csk: Full-length wild-type human C-terminal Src kinase, 50 kDa protein (protein, UniProt P41240 1-450, looked up)
chain: MSAIQAAWPSGTECIAKYNFHGTAEQDLPFCKGDVLTIVAVTKDPNWYKAKNKVGREGIIPANYVQKREGVKAGTKLSLMPWFHGKITREQAERLLYPPETGLFLVRESTNYPGDYTLCVSCDGKVEHYRIMYHASKLSIDEEVYFENLMQLVEHYTSDADGLCTRLIKPKVMEGTVAAQDEFYRSGWALNMKELKLLQTIGKGEFGDVMLGDYRGNKVAVKCIKNDATAQAFLAEASVMTQLRHSNLVQLLGVIVEEKGGLYIVTEYMAKGSLVDYLRSRGRSVLGGDCLLKFSLDVCEAMEYLEGNNFVHRDLAARNVLVSEDNVAKVSDFGLTKEASSTQDTGKLPVKWTAPEALREKKFSTKSDVWSFGILLWEIYSFGRVPYPRIPLKDVVPRVEKGYKMDAPDGCPPAVYEVMKNCWHLDAAMRPSFLQLREQLEHIKTHELHL
modifications: full-length
notes: Full-length wild-type human C-terminal Src kinase, 50 kDa protein
B2: Abl-[SH2^15N]SH(32): Ligated human Abl SH3-SH2 domain pair with G120 C121 mutations, only the SH2 domain 15N labeled (SEQ ID NO: 1) (protein)
chain: MLFVALYDFVASGDNTLSITKGEKLRVLGYNHNGEWAEAQTKNGQGWVPSNYITPVGCLEKHSWYHGPVSRNAAEYLLSSGINGSFLVRESESSPGQRSISLRYEGRVYHYRINTASDGKLYVSSESRFNTLAELVHHHSTVADGLITTLHYPAPKRGIHRD
modifications: 15N label on SH2 domain

Experiments:
poly(glu,tyr) [1] = test: Csk kinase assay, transfer of 32P from γ-32P-ATP to poly(glu,tyr); type: biochemical
Description: In each of the two ligation reactions, the crude product mixture was nearly free of unligated material, although both preparations were contaminated with GroEL and DnaK. Although yields were not optimized, an estimated 0.5 mg of ligation product per 2.5 L bacterial cell culture was produced. […] Kinase assays were performed as described by Cole et al., J. Biol. Chem. 269, 30880 (1994) where transfer of ^32P from γ-^32P-ATP to poly(glu,tyr) was monitored. Briefly, poly(glu,tyr) reactions were carried out in 60 mM Tris-HCl, pH 7.4, 2 mM MnCl2, 10 mM dithiothreitol, 200 μg/mL BSA for 2 minutes at 30° C., quenched with EDTA, run out on 10% SDSPAGE and phosphopoly(glu,tyr) analyzed by scintillation counting. […] Further characterization of (Csk^PEP) and (Csk^pPEP) by electrospray mass spectrometry gave molecular masses in good agreement with the predicted values (FIG. 2C).

poly(glu,tyr) [2] = target: T1, poly(glu,tyr) (Homo sapiens, UniProt P41240); settings: wild type Csk, reference (32), cited from earlier work
T1 construct: N-terminal methionine residue in the protein produced as an intein-CBD fusion was completely removed (no such cleavage is observed); Tyr unphosphorylated in Csk^PEP, phosphorylated in Csk^pPEP; made in house; host or cells: E. coli DH5α, co-expressed with GroES/GroEL

[3] = target: T2, consolidated ligand NH2-PVpYENVG6>(PPAYPPPPVPKCONH2) (Homo sapiens, UniProt P00519, C100A/N120G/S121C); test: Fluorescence-based titration binding assay; settings: consolidated ligand binding both SH3 and SH2 domains; read-out: equilibration dissociation constant (Kd) for binding to the ligand
T2 construct: intein-CBD (on the SH3 segment, removed on thioester formation) (C, cleaved yes); GST-SH3-IEGR (upstream of the SH2 segment, removed by thrombin and Factor Xa) (N, cleaved yes); made in house; host or cells: E. coli (BL21 for SH3-intein-CBD, DH5-α for the GST fusion that gives SH2)
Description: Under these conditions, no protein precipitation was observed and NMR analysis indicated the sample had adopted a native fold. A similar strategy was therefore used to prepare the complete [SH2-^15N]SH(32) construct for functional and structural analysis. The binding affinity of Abl-[SH2^15N]SH(32) for the consolidated ligand, NH2-PVpYENVG6>(PPAYPPPPVPKCONH2) (SEQ ID NOs: 5 and 6, respectively), which binds both the SH3 and the SH2 domains simultaneously (78) was studied using a fluorescence-based titration assay. (The C-terminal glycyl residue is linked to the N ε of lysyl in the second peptide segment). […] This affinity is characteristic of the dual domain construct.
Fluorescence Binding Assay: The equilibrium dissociation constants of the protein constructs for the consolidated ligand were determined using the previously describedfluorescence-based titration assay (78). The binding constant for the segment labeled construct was 300 (±100) nM. Experiments were performed on a Spex Fluorolog-3 spectrophotometer fitted with a Neslab temperature control unit.

Molecule | catalytic activity (kinase assay) (poly(glu,tyr) [1]) | Km of poly(glu,tyr) (poly(glu,tyr) [2]) [µg/mL] | kcat (poly(glu,tyr) [2]) [s⁻¹] | Km (poly(glu,tyr) [2]; read-out: Km of ATP) [µM] | Kd [3] [nM]
B1 | fully active | 48 ± 2 | 0.667 ± 0.083 | 12 ± 1 | 
B2 |  |  |  |  | 300
